assay: soluble on expression in E. coli; label from the status in PepcDB or PDB records

| Sequence | soluble on expression in E. coli |
| --- | --- |
| NYMGNPWTEYMAKYDIEEVHGSGIRVDLGEDAEVAGTQYRLPSGKCPVFGKGIIIENSNTTFLTPVATGNQYLKDGGFAFPPTEPLMSPMTLDEMRHFYKDNKYVKNLDELTLCSRHAGNMIPDNDKNSNYKYPAVYDDKDKKCHILYIAAQENNGPRYCNKDESKRNSMFCFRPAKDISFQNYTYLSKNVVDNWEKVCPRKNLQNAKFGLWVDGNCEDIPHVNEFPAIDLFECNKLVFELSASDQPKQYEQHLTDYEKIKEGFKNKNASMIKSAFLPTGAFKADRYKSHGKGYNWGNYNTETQKCEIFNVKPTCLINNSSYIATTALSHPIEVE | soluble |
| MGSDKIHHHHHHMSDKLSQEQIDALLSQMSEGKVVDESTEIGDFGRFHPYDFHKPEKFGAEHLESLKTIASAFTKKSMEFVSQRIRIPIHTEATLADQVSFASGYIETMPNDSYIFCIIDLGNPELGQIIIELDLAYIIYIHECLSGGNPKRKLSERRLLSVFEELTLKSILEKFCEALKDSFKSVHPISPEIVNIETNPALLRVTSPNDMMALVSVDIKSEFWISTMRIGVPFFSVEEIMNKLENVVEYTFDKRRNFDAEVEQELHQVEKEARIRVGEIKTTWKELNMLEVGDVLLTETHIRDTLKGYVTEKWKFECYMGKSGNQKAVKFMRHTGRTEQER | not soluble |
| MDEEKIVLIGNESDLLHCGYNFALRAGGKRYPSAAHYTHYQILMSLNLPETAVEELLCTNSCDVHQKALVILQENMPDGHTINSLAAYLSESLRSYSIHALQLRAESDKDFEKTLMKTNEALLIVCDEKNPQLGIGMNDKTFMEWMAKEKADSRQISYWMKNEHTKPADLGQNKLGQYLMWLRFEIRERKKQGILTRPVVEVAGLSTDKDDEPIMISINDLVISLEGIFRPLSNYYAFPFEMKRERYRSVEHYAYEKLFNSLKLDEKAIEKIQTTPAPLNVPVVASKLLRKLEINPETIAEKTSKMDRWRQSAMKHKIYHNEYLQQLLLSTGSAILIDSSLGDPLWTCGATEVELQHLLTKSYVTPEKLVGWMLDGEETNTPKSVRHLYGNKSGLLLMELREKLSLQTTSRIPLVKLSKMNLNPLSGIVTPNVICFTPESVFHPLYPAEIRCSADGPPLPSPVHYVATQAAKFLSMNQEDTEYILEGPSSIQCWSRLHEVIESRGRGLELEQTWWMDKRMQFIKESLQLLLEQHPALLRALLDTGDSMLVYCSRFSSMDAELSMGMREMDFRYWLQEVDLTTKQLIELCTRPMAFRPPYIGGNRLGMILMELRREFVLQGVFPQQLPELQLTADSILGSNSPTENFMTSEYFDILQPWNYTALWINPLFLLAKDGNQEAMAQCTRIKTAPRMVTIDDEKVTDIVENLVNDETQEEALNSIAPEDLRAVFMKLCARLRGKIETLDRQSMELSMVAMETHRLQSIRRSLADTAERAETEGPSSSTGPSISAPPIPSRPGHSNYRMAAGRERDREEEREKDRERLQSQLSTSSSGPQGSASRKERMEYKIPTTSRRKFGKDRDRLPEKSSSDRGRDKHLDTPTKKRVNQSPPSRKAAPSPAKKPAISTSTPAVVVPPKPKRDPEEELSDGEILSTDEEDN | not soluble |
| AAWLQRKQFVSAGQEVAARLNTLGAELTQSRNDMREALALAQAQSGKVAELEGKVREAQSQYSALQQALQNLNDGASDEMLANDIERLITIASQQLRLAGNVSNAIVALETAQARLARADRPRFASLQQSINGDLDRLRAVGVVDIAAQSARIDRLVALVGRAPLLVPDAAAPGVTAVPQANEAVPASVDPGADLPADAAWWQRWQAEIASWPGRAGSALAHELGDLIRVQRVDQPTALLLSPEQAGQLRSTLRQRLLTAQLSMLMRQPAVWKSELDAVAATLAQYFDGKAPDTVAALALARELGQVEIAVRVPDVADSLNGIAALRAAGFNADG | not soluble |
| MGSDKIHHHHHHMLLQTKSNEMLLEKVMDEFSAATSLASVVVDIHGTEVSRLCNFTPFCQLIRSNPKYRSLCQKCDMFGGLEASKTGKPLIYRCHAGLTDFSVPIVVENQLSGFLLSGQVICEENSEVGNIQTEETDWKNDKDLISAFRSVPVFSSKKINSSAEMLTIISQYYLKSEMEKSREEQKQKIVFHHNKPTHHEDNKEIRKALKYIEKNLNRPITLDEVASHVYLSSYYFSKLFKKEMNVNFINYVNQKKMSLAKDMLKNPRWSIDNVARNLGFTQTSYFCKVFRKEFDVTPKGYRETLK | not soluble |
| MDYDQQPIMYDEVELLIQAVDQQPHPLLRLRDKAIIQLGLQGGFRRSELANLKVHYLSFMRDKLKVRLPFSKSNQQGLREWKSLPDSEPFAAYHAVKSWLNESQITDGHLFRSISRDGKTLRPYHVNDNSKPKSTFSRNSGFLNGDDIYRIIKQYCLKAGLPAQYYGAHSLRSGCVTQLHENNKDILYIMARTGHTDPRSLRHYLKPKEDLEHHHHHH | not soluble |
| LKRLFWPVLLVVLGFGTYEGAQRLLPYADRPIARINVQGDLSYISQQAVQQRIAPYVASSFFKIDLAAMRTELEQMPWIAHAEVRRVWPDQVVIRLEEQLPVARWGDEALLNNQGQAFTPRELSNYEHLPQLFGPQRAQQQVMQQYQVLSQMLRPMGFSIVRLELRERGSWFLTTGAGSAGPGIELLLGRDHLVEKMRRFIAIYDKTLKEQITNIARVDLRYSNGLAVGWREQAAATTDKPAVAKN | not soluble |
| MGGKSNGEKKYIVGFKQGFKSCAKKEDVISEKGGKLQKCFKYVDAASATLNEKAVEELKKDPSVAYVEEDKLYRALSATS | soluble |
| MGSDKIHHHHHHMKKKTAVVFGTFAPLHQGHIDLIQRAKRQCDQVWVVVSGYEGDRGEQVGLTLQKRFRYIREAFRGDELTLVCKLDETNLPRYPMGWQEWLDQMLAEISYDETQQELIFFVGEADYQQELSNRGFETVLQERKFGISATMIRENPSKYWKNIAQPFRRQFTKKVLIMGSASNGKTTLAKDLARYYDAPVSLEYAREYQIKNNVRDDELTPKDYYYLLLGQYDQTSKLIDSNANRGLVIADTNSLVTKGYYDYYMETEDQGDLSGETFDNLFVSILAKEKWDLILFVQPVGSYVNDGFRDMTMAEDHIRHSFSQHLDHMRERYLTTIPLVYLAEDYLGNYEAAKVAIDAIYQAD | not soluble |
| AFLNKHFAKKNHNISVDELSHALELTDKAELTEENNILEGIIRFGGETAKEVMTSRLDVVDLDIRTPFKDVIQCIIDNAYSRIPIYSGTRDNIKGVLYIKDLLPHLNKGDNFRWQSLIRPAYFVPETKMIDDLLRDFQANKIHIAIVVDEFGGTSGIVTMEDIIEEIVGEIHDEYDD | soluble |
| MGSDKIHHHHHHMHAIGFTDHLPIEDPASLRDVTISKPSAQGHDLLVQVQAVAVNPVDVSVRKTGHEHRMRPKILGWDATGIVTAVGEAVTLFQPGDHVFYAGSFRRPGCDSAYHLVDERLVGHAPATLTTAARAAMPLTSLTAYEALFEQLHIPFDPAKPNSEKCNQTILIINGAGGVGSIATQLAKLAGLTVISSASRPESIAWTQQHGADLVVNHHHDLVSEVHALGIKDVDYILGLSDLDSHWNEICTLIKPGGHIASITENRRPIDLKKLTKKRGTFAWEWMYSKSYYHTADMISQHDILETIADLLDRGLLQSTLSQTLRPINALNLRQAHQLIEQHHMIGKVVIEGWE | not soluble |
| IPLKSIEVPFEGELLPGYAIISEDKAQDTLIVVGGGDTSREDLFYMLGYSGWEHDYNVLMVDLPGQGKNPNQGLHFEVDARAAISAILDWYQAPTEKIAIAGFSGGGYFTAQAVEKDKRIKAWIASTPIYDVAEVFRISFSTALKAPKTILKWGSKLVTSVNKVAEVNLNKYAWQFGQVDFITSVNEVLEQAQIVDYNKIDVPSLFLVGAGEDSELMRQSQVLYDNFKQRGIDVTLRKFSSESGADAHCQVNNFRLMHYQVFEWLNHIFKKKD | not soluble |
| MKNPTVSIIIPVYNAEGTITRCLDSIIHQTYSSIEVIIIDDGSSDLSGSICDNYATKYNYIQVIHKKNEGVSIARQIGVKHSKGLYSIHVDADDYIDKCEIERMMDIALKFNADMVVCDYILEYKKNKFVYQKGMKDACDAFDFLKQIYNGIFIGTLWNKLIKTSLYNNVIFLKQCNYCEDVYILTQILSNNISINYINEALYHYCYDASSLTREINRNYIINRIIFIQEIEKILPLDLDLSRFKAGIKLSILKSGEYTYKEYINLYPNTNIPKELLNKRNLLFLSTANFFIGYQFLKILFNLKKRFKSFHL | not soluble |
| RAETAVQRTEDRYHNLVDTAPIPILLFDRDWKALYANEAAIAFLDADSFTEIAGKKASDFLHPDERDAARKRFQRLMREGVSVPEREYRVMTAEGEVKTATIATAPGYYRGEQVAQAMV | not soluble |
| MSLIYTLTLNPSVDYKIVLKEFQEESLNYALNNNFFAGGKGINVSTVLKNLGKPSTALGFLGGFTGDYIRFSLDSRGIKNDFIKIKYDTRLNIKMIANGRETEINANSPDISENEFELLKNKLKNLANNSTLVMSGSVPAALGEDAYNEIANSISNDVKLIIDTSGKPLRKILRLNPFLIKPNIYELEDLFNAKFDSTKELIKIGKNLVESGVQNIIISMGSDGAIFIGGKNVAFRAFVPKINFVSTIGAGDSVIAGFVYAFDNGSTLEDSFKFGVAAGTATALKGNLCEFQDVKKMLCQIRVEDIYTSEGHHHHHH | soluble |
| MLEEVERWLDARSWPAADRPVQHLLSAKHATGQSVSVVLPALDEEATVGDIVSVIRRELVLGVPLVDEIVVVDSGSSDRTSEVAAAAGARVVHRDAILPRIPAVPGKGEVLWRSLLVTGGDIVCFVDADLREFSADFVSGIVGPLLTDPDVHLVKAMYDRPLAGAAGQGGRVTELMARPLLNMHWPQLAGFVQPLGGEYAARRSLLERLPFPVGYGVELGMLVDALHLVGLDALAQVDVGVRVHRHQDGRALGRMAAAIYRTAQLRLARGHLVRPALTQFERGVDGFEPRTYAVDTEERPPMTEIAEYAARKVALEHHHHHH | soluble |
| MGSDKIHHHHHHMKHAFETLVGEVHAALQAGEQFTLGYSAEQSQFVRFNHAKVRQAGEVSQASAQLRLVRDGRQAEQQVTLSGDVQLDRQRLNVALEQLRQTLPLLALDPYLRLDENAWHSHSLQEPPLPALNEVLALLEREAGDLDLVGIYAAGPVCRGFASSFGAFGWHQANSFNVDWSLFHDNGQAVKANYAGQAWSADDFTARLRQAREQLGFLGRPAVTLKPGTYRAYLAPAAMDEVAGMLCWGGFSAQALATGNSALQRLYNGDARLSPLVSFTEQVSGSLSPAFSDEGAPRLDVPLIQQGEARQRLISARSAAEFELQANGADGYESPCALSLAPGNLASAQILERLGTGLYISNLWYLNYSDLPAARMTGLTRFATFWVEDGQIQGPVSTMRFDDSLYSLLGSQLEDLTQEREMILSTSTYGQRSTGSSHLPGALVKGLTLTL | not soluble |
| MGSDKIHHHHHHMKNLLDLTGKLNIYSPKFNRYQTSLMKIDMHRTKLEQKQPHFDAQKRRKKECKNSNTPFVRPKLELPHGHNKLLLHSCCAPCSGEVMEAIHASGIDFTIYFYNPNIHPLKEYLIRKEENIRFAEKWGIPFIDADYDRQNWFDRAKGMEDEPERGIRCTMCFDMRFEKAAQYAHENGFPVFTSCLGISRWKDMNQINGCGHRAAEKYDDVVYWDYNWRKGGGSQRMIEISKRERFYQQEYCGCVYSLRDTNKWREANGRQKIEIGKLYYSADK | not soluble |
| MEAEGFPRLFHNFENVPEPKECKKVGSVPSYLTGTMLRNGPGMFTVGEEEYKHWFDGLGFMQRYHFEDGKMFYSARYLESEAYTKTVEAQRIVAGTFGTLSFPDPCKTIFSKYFSEFMNHSEKHDNSNVAFTPVGDSLYACTETPHMYRVDLDTLKTLEAADFSKFVAVHSCTAHQLYDENGDVYNIGSRFGPESAHVFTVTKNPKNQKSENDHSWEHTSKIGEIKASDPLYPTYMHSFGMSENYLVMFESPVRLHLQKYLLSEFVRATYHDCLEWHGDKDVSIFILNKKTGEQLPLTLKMNPFFTFHHANTFEKDGCLVMDYCRIENAGKFDTLLISNMKTGEFQYDAKFLPYLTRVIVPMSVSSSAKPGDNLLKSVPWASGCTSILQDDGSIRLTERRVCETSMEFPRYHWEKINMKEYRYVFGSTVFGRIDGNLAGVVKADLKFGNHLIWNRENPHQICGEPIFVPNPEGIEEDDGILIVPIMSSSEKQVPFVLILDAKTLEETARFEIPEARIPLGFHAFYKPKN | not soluble |

— the DeepSol protein solubility set
